The values that follow come from article PMC4820125, “Aptamer-Assisted Detection of the Altered Expression of Estrogen Receptor Alpha in Human Breast Cancer”.

One data set has as its target PR-LBD (UniProt P06401 675-933). The experiment in a line: aptamer ELISA; negligible binding; ITC: 10 mM Tris-HCl pH 8.0, 25 C; aptamer binding buffer (SELEX): 20 mM Tris-HCl pH 7.6, 120 mM NaCl, 5 mM KCl, 1 mM MgCl2, 1 mM CaCl2, RT (ca. 27 C); ELISA: 2. Particulars: protein: commercial; tags: GST. On the technique in general: ELISA stands for enzyme-linked immunosorbent assay.

The target in a further data set is PR-DBD (human (cDNA from MCF-7), UniProt P06401 567-639). Described as above. The note with it: protein: recombinant; tags: His (pET100/D-TOPO).
Chain of PR-DBD (P06401 567-639): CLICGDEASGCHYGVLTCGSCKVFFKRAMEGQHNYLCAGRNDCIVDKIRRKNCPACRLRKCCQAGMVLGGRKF
Another data set concerns the target ERα full length (UniProt P03372 1-595). The experiment in a line: aptamer ELISA; 500 nM aptamer; ITC: 10 mM Tris-HCl pH 8.0, 25 C; aptamer binding buffer (SELEX): 20 mM Tris-HCl pH 7.6, 120 mM NaCl, 5 mM KCl, 1 mM MgCl2, 1 mM CaCl2, RT (ca. 27 C); ELISA: 2. The note with it: protein: commercial, chain copies: 2.

Chain of ERα full length (P03372 whole entry): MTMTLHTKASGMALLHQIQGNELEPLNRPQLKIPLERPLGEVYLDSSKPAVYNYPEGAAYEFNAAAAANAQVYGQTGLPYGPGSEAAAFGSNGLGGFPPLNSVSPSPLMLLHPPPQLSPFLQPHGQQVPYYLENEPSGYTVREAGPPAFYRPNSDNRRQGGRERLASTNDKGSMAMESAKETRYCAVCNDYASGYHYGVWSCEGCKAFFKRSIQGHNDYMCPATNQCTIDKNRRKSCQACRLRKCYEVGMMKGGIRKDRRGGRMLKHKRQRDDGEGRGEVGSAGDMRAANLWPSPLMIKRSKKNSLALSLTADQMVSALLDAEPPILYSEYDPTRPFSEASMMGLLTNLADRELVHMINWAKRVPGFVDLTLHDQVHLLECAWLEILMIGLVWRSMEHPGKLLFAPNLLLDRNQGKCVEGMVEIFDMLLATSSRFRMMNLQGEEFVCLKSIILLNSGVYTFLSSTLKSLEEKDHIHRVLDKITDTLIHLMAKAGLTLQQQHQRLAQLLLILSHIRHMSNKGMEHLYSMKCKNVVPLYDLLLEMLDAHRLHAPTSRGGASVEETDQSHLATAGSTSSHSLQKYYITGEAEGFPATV
Chain of PR-LBD (P06401 675-933): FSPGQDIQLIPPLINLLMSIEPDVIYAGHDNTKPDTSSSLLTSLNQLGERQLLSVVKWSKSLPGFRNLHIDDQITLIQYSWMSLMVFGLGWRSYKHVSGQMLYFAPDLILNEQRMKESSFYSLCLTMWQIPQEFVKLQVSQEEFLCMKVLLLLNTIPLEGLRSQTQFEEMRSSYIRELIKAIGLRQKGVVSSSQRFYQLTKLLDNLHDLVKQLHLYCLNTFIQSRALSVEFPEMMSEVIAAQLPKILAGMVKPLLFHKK

B1: ERaptD4 (ssDNA)
DNA: ATACCAGCTTATTCAATTCGTTGCATTTAGGTGCATTACGGGGGTTATCCGCTCTCTCAGATAGTATGTGCAATCA
In the case of B1, the binding result with PR-LBD and with PR-DBD was “no binding” throughout. Besides, the binding signal with ERα full length is 78.5 % of anti-ERα antibody signal.

B2: ERaptD3 (ssDNA)
DNA: ATACCAGCTTATTCAATTGGGGATAACGTCGTCACGTCGTGTCATCATTGGTTCAGTCAGATAGTATGTGCAATCA
As for B2, in the data set with ERα full length (label: biotin), the binding signal is 47.3 % of anti-ERα antibody signal.

B3: ERaptD8 (ssDNA)
DNA: ATACCAGCTTATTCAATTCGAGTAACGCTGTCTCTTCCGAATCGGGGGAAGGCGGAGGAGATAGTATGTGCAATCA
Consider B3, for which the binding signal with ERα full length (label: biotin) is 50.5 % of anti-ERα antibody signal.
